Assay results reported in patent publication US20110097340A1 (SCHERING, published 2011).
Residue numbers refer to the chain shown, from its start.

Key:
wild-type hVEGF121 = biological target: T1, wild-type hVEGF121 (human, UniProt P15692-9 27-147); assay: sandwich ELISA, antibody coated
T1 sequence (looked up): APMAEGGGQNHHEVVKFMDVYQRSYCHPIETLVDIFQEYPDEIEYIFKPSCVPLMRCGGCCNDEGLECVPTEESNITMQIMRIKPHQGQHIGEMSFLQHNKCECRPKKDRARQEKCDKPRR
Experimental: (§1) Mutants were transiently expressed in CHO-K1 cells, and cell supernatants were collected for binding analysis by ELISA.
(§2) The plate was blocked with 30% ChemiBlock™ reagent (Millipore) in PBS for one hour at room temperature, and 30, 60, or 100 μl of CHO-K1 culture supernatant for each mutant, or 1 μg/ml of wild-type hVEGF₁₂₁, recombinant hVEGF₁₆₅, or recombinant mVEGF₁₆₅, was added to appropriate wells. After one hour of incubation, the plate was washed and incubated with a biotinylated goat polyclonal anti-VEGF antibody for one hour at room temperature. Detection was performed with HRP-conjugated streptavidin, followed by TMB chromogenic substrate (Calbiochem) using manufacturer protocol.

human VEGF165 [1] = biological target: T2, human VEGF165 (human, UniProt P15692 207-395); assay: sandwich ELISA, antibody coated
Experimental: as §1, §2

hVEGF121-G92A = biological target: T3, hVEGF121-G92A (human, UniProt P15692-9 27-147, G92A); assay: sandwich ELISA, antibody coated
T3 construct: Transiently expressed in CHO-K1 cells; culture supernatant used
T3 sequence (looked up): T1 sequence (looked up) with G92A
Experimental: as §1, §2

murine VEGF165 [2] = biological target: T4, murine VEGF165 (murine, UniProt Q00731-2 27-190); assay: sandwich ELISA, antibody coated
T4 construct: also called mVEGF165; rMu-VEGF165
T4 sequence (looked up): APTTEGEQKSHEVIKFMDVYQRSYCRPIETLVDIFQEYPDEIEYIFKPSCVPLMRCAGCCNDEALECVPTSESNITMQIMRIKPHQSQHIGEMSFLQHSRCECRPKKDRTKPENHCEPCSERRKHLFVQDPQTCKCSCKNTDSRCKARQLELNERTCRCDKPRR
Experimental: as §1, §2

hVEGF121-M81A = biological target: T5, hVEGF121-M81A (human, UniProt P15692-9 27-147); assay: sandwich ELISA, antibody coated
T5 construct: Transiently expressed in CHO-K1 cells; culture supernatant used
T5 sequence (looked up): T1 sequence (looked up) with M81A
Experimental: as §1, §2

hVEGF121-G88S = biological target: T6, hVEGF121-G88S (human, UniProt P15692-9 27-147, G88S); assay: sandwich ELISA, antibody coated
T6 construct: Transiently expressed in CHO-K1 cells; culture supernatant used
T6 sequence (looked up): T1 sequence (looked up) with G88S
Experimental: as §1, §2

hVEGF121-Q89A = biological target: T7, hVEGF121-Q89A (human, UniProt P15692-9 27-147, Q89A); assay: sandwich ELISA, antibody coated
T7 construct: Transiently expressed in CHO-K1 cells; culture supernatant used
T7 sequence (looked up): T1 sequence (looked up) with Q89A
Experimental: as §1, §2

human VEGF165 [3] = biological target: T2, human VEGF165; assay: cell-based or functional assay
human VEGF165 [4] = biological target: T2, human VEGF165; assay: Biacore 2000, hVEGF165 amine-coupled on C1 chip, antibody injected, 1:1 fit
Experimental: (§3) The VEGF binding affinity of these IgGs was tested on a Biacore 2000® by injecting the antibodies over a very low density antigen surface. Human or murine VEGF₁₆₅ was immobilized via standard amine coupling methods to flow cells on a C1 (planar carboxy surface) chip. Approximately 85 RU of each antigen was immobilized and a reference flow cell was activated and blocked. Antibodies were injected over the chip surface for 400 seconds at two different concentrations, after which dissociation was monitored. Data was analyzed by Scrubber® using double referencing and fitting with a 1:1 interaction. Regenerations were performed with 90 mM HCl with 500 mM NaCl.
Target sequence in this assay (P15692 other isoform, or with tags, fused parts or gaps limits assumed): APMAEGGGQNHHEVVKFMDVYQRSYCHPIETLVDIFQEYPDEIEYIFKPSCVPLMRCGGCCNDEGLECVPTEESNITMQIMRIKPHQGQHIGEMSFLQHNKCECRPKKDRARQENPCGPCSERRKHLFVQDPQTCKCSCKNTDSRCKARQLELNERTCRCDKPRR

human VEGF165 [5] = biological target: T2, human VEGF165; assay: cell-based or functional assay; remark: listed apart in the source
Target sequence in this assay (P15692 other isoform, or with tags, fused parts or gaps limits assumed): as above

murine VEGF165 [6] = biological target: T4, murine VEGF165; assay: Biacore 2000, mVEGF165 amine-coupled on C1 chip, antibody injected
Experimental: as §3

human VEGF165 [7] = biological target: T2, human VEGF165; assay: ELISA on hVEGF165; unstressed XPA.10.064.06
human VEGF165 [8] = biological target: T2, human VEGF165; assay: ELISA on hVEGF165; unstressed XPA.10.064.06; remark: listed apart in the source
human VEGF165 [9] = biological target: T2, human VEGF165; assay: ELISA on hVEGF165; XPA.10.064.06 after thermal stress without methionine
Experimental: (§4) For chemical stress, the antibodies were incubated overnight at room temperature with 0.1% tBHP in the presence or absence of 5 mM L-methionine. For thermal stress, the antibodies were incubated in polysorbate for four weeks at 40° C. in the presence or absence of 5 mM L-methionine. The ability of the antibodies to bind hVEGF₁₆₅ was analyzed by Biacore and ELISA.

human VEGF165 [10] = biological target: T2, human VEGF165; assay: ELISA on hVEGF165; XPA.10.064.06 after thermal stress in the presence of methionine
Experimental: as §4

human VEGF165 [11] = biological target: T2, human VEGF165; assay: ELISA on hVEGF165; XPA.10.064.06 after chemical stress (tBHP) in the presence of methionine
Experimental: as §4

human VEGF165 [12] = biological target: T2, human VEGF165; assay: ELISA on hVEGF165; XPA.10.064.06 after chemical stress (tBHP) without methionine
Experimental: as §4

human VEGF165 [13] = biological target: T2, human VEGF165; assay: Biacore (SPR)

What does the source list for “control polyclonal goat anti-human VEGF (antibody)”?
Raw data (ELISA signal) (wild-type hVEGF121): 2.56; fold binding over CHO background (wild-type hVEGF121): 28 fold; Raw data (ELISA signal) (human VEGF165 [1]): 2.45; fold binding over CHO background (human VEGF165 [1]): 26.9 fold; Raw data (ELISA signal) (hVEGF121-G92A): 2.18; fold binding over CHO background (hVEGF121-G92A): 23.9 fold; Raw data (ELISA signal) (murine VEGF165 [2]): 0.0939; fold binding over CHO background (murine VEGF165 [2]): 1 fold; Raw data (ELISA signal) (hVEGF121-M81A): 1.71; fold binding over CHO background (hVEGF121-M81A): 18.8 fold; Raw data (ELISA signal) (hVEGF121-G88S): 0.769; fold binding over CHO background (hVEGF121-G88S): 8.4 fold; Raw data (ELISA signal) (hVEGF121-Q89A): 0.985; fold binding over CHO background (hVEGF121-Q89A): 10.8 fold

B1: XPA.10.064 scFv-Fc (Fc fusion, part only; not given: linker, gamma-2 Fc, junction, not shown: another chain or arm of the molecule; a dimerising Fc or GST; small tags and cut ends)
VH: EVQLVQSGAEVRKPGASVKVSCKASGYSFTGHYIHWVRQAPGQGLEWMGWINPYSGGTNFPREFQGRVTMTRDTSVNTVYMELTRLTSDDTSVYYCARDHRIVGGLDYWGQGTLVTVSS
VL: SYVLTQPPSASGTPGQRVTISCSGSSSNIGINYVYWYQQLPGTAPKLLIYRNDQRPSGVPDRFSGSKSGTSASLAISGLRSEDEADYYCATWDDSLSGVVFGGGTKVTVL
For B1, which HPP: sf21-hVEGF165, scFvFc (IC50) (human VEGF165 [3]) is on record?
Its HPP: sf21-hVEGF165, scFvFc (IC50) is 0.41 µg/mL.

B2: XPA.10.064.03 IgG2 (antibody, V domains shown)
VH: B1 VH with H100Q, R101M, I102V, V103H
VL: B1 VL
notes: IgG2
How did the Kd (human VEGF165 [4]) turn out when B2 was run?
The Kd was 91.7 pM.

And the koff (human VEGF165 [4])?
Its koff is 1.8e-05 s⁻¹.

What about the kon (human VEGF165 [4]) of the same molecule?
Its kon is 196000 M⁻¹ s⁻¹.

And the “HUVEC proliferation, geometric mean IC50” value (human VEGF165 [5])?
Its value is 174 pM.

B3: XPA.10.064.04 IgG2 (antibody, V domains shown)
VH: B1 VH with H100E, R101M, I102Q, V103N
VL: B1 VL
notes: IgG2
What does the source list for B3?
Kd (human VEGF165 [4]): 197 pM; koff (human VEGF165 [4]): 2.94e-05 s⁻¹; kon (human VEGF165 [4]): 150000 M⁻¹ s⁻¹

B4: XPA.10.064.06 IgG2 (antibody, V domains shown)
VH: B1 VH with H100E, R101M, I102T, V103R
VL: B1 VL
notes: IgG2
With B4 as the molecule, how does the Kd (murine VEGF165 [6]) read?
Its Kd is 208000 pM.

What about the “EC50 (read off the curve)” value (human VEGF165 [7]) of the same molecule?
The value was about 0.006 µg/mL.

What about the “EC50 (read off the curve)” value (human VEGF165 [8]) of the same molecule?
The value was about 0.006 µg/mL.

What about the Kd (human VEGF165 [4]) of the same molecule?
Its Kd is 121 pM.

And the koff (human VEGF165 [4])?
Its koff is 2.07e-05 s⁻¹.

What about the kon (human VEGF165 [4]) of the same molecule?
Its kon is 178000 M⁻¹ s⁻¹.

What about the “HUVEC proliferation, geometric mean IC50” value (human VEGF165 [5]) of the same molecule?
Its value is 173 pM.

B5: XPA.10.064.06 after oxidation (chemical stress with tBHP or thermal stress) (antibody, V domains shown)
VH: B1 VH with H100E, R101M, I102T, V103R
VL: B1 VL
modifications: partial methionine oxidation; after tBHP: Met-48 20%, Met-70 0%, Met-81 14%, Met-101 66%; degree after thermal stress not given
notes: also called oxidized XPA.10.064.06
Which “EC50 (read off the curve)” value (human VEGF165 [9]) does the source give for B5 here?
The value was about 0.01 µg/mL.

And the “EC50 (read off the curve)” value (human VEGF165 [10])?
The value was about 0.006 µg/mL.

And the “EC50 (read off the curve)” value (human VEGF165 [11])?
Its value is about 0.02 µg/mL.

And the “EC50 (read off the curve)” value (human VEGF165 [12])?
The value was about 0.05 µg/mL.

B6: XPA.10.064.07 IgG2 (antibody, V domains shown)
VH: B1 VH with H100E, R101M, I102H
VL: B1 VL
notes: IgG2
With B6 as the molecule, how does the Kd (murine VEGF165 [6]) read?
The Kd was 130000 pM.

And the Kd (human VEGF165 [4])?
The Kd was 34.9 pM.

And the koff (human VEGF165 [4])?
The koff was 6.65e-06 s⁻¹.

And the kon (human VEGF165 [4])?
The kon was 207000 M⁻¹ s⁻¹.

What about the “HUVEC proliferation, geometric mean IC50” value (human VEGF165 [5]) of the same molecule?
The value was 129 pM.

B7: XPA.10.064.10 IgG2 (antibody, V domains shown)
VH: B1 VH with H100E, R101M, I102V, V103W
VL: B1 VL
notes: IgG2
B7 was tested. Which Kd (human VEGF165 [4]) did it give?
The Kd was 55.6 pM.

And the koff (human VEGF165 [4])?
Its koff is 1.16e-05 s⁻¹.

What about the kon (human VEGF165 [4]) of the same molecule?
Its kon is 216000 M⁻¹ s⁻¹.

And the “HUVEC proliferation, geometric mean IC50” value (human VEGF165 [5])?
Its value is 139 pM.

B8: XPA.10.064 after oxidation with tert-butylhydroperoxide (antibody, V domains shown)
VH: B1 VH
VL: B1 VL
modifications: partial methionine oxidation after tBHP: Met-48 39%, Met-70 0%, Met-81 28%
notes: also called oxidized XPA.10.064
Does B8 bind (human VEGF165 [13])?
Result: binds

B9: Bevacizumab (antibody, V domains shown)
VH: EVQLVESGGGLVQPGGSLRLSCAASGYTFTNYGMNWVRQAPGKGLEWVGWINTYTGEPTYAADFKRRFTFSLDTSKSTAYLQMNSLRAEDTAVYYCAKYPHYYGSSHWYFDVWGQGTLVTVSS
VL: DIQMTQSPSSLSASVGDRVTITCSASQDISNYLNWYQQKPGKAPKVLIYFTSSLHSGVPSRFSGSGSGTDFTLTISSLQPEDFATYYCQQYSTVPWTFGQGTKVEIK
Which “Raw data (ELISA signal)” value (murine VEGF165 [2]) does the source give for B9 here?
Its value is 0.0843.
